Assay results taken from PMC3104520 (Biochemistry, 2011).
Like-named read-outs stand apart in the source and are kept apart here.

How the values were obtained:
Assay in all cases: diffusion NMR
diffusion NMR [1] = molecular target: the molecule itself
diffusion NMR [2] = molecular target: the molecule itself; remark: listed apart in the source
diffusion NMR [3] = molecular target: the molecule itself; remark: listed apart in the source

B1: Surfactant protein A (SP-A), bovine (natural protein)
chain: not shown
stoichiometry N (diffusion NMR [1]): ~10 molecules
stoichiometry N (diffusion NMR [2]): ~12 molecules
stoichiometry N (diffusion NMR [3]): ~9 molecules
